Measured values taken from article doi:10.1101/216143.

Target: unmodified R1810 peptide of the RNAP2-CTD (human)
Test: MST

Substance: recombinant PADI2 (peptidyl arginine deiminase 2) (from UniProt Q9Y2J8 1-665) (enzyme)
- Kd: 220 nM
